Molecular target: West Nile virus strain USA99b (strain 385-99), whole virus (West Nile virus strain 385-99 (USA99b))
Test: ELISA on irradiated WNV; antibody at 20.000 µg/ml

anti-rabies virus antibody (negative control)
OD 492nm: 0.051 OD 492nm
